Source: patent US8173397B2, “Folded recombinant catalytic fragments of multidomain serine proteases, preparation and uses thereof” (TargetEx Kft., priority 2002, dated 2012)

Key:
C4 = C4 cleavage by MASP fragments; format: biochemical, human; settings: for C4 kcat: 37° C., pH 7.4, averages of 2 to 4 experiments, standard errors
Method: (§1) C2, C3, C3(NH3), C4 cleavage—Serial dilutions of MASP-1 and MASP-2 fragments ranging between concentrations of 1 μM and 10 pM were incubated at 37° C. in 20 mM HEPES, 140 mM NaCl, pH 7.4 with C2, C3, C3(NH3) or C4 at typical concentrations of 0.5-1 μM. The cleavage was followed by SDS-PAGE under reducing conditions. Desirable concentrations of the MASP fragments for further detailed kinetic analysis were chosen to be where half of the protein substrates were hydrolyzed during the first 20 minutes of incubation. The protein substrates C2, C3, C3(NH3) or C4 were then incubated with the selected concentrations of the MASP fragments at 37° C. in 20 mM HEPES, 140 mM NaCl, pH 7.4. Typically 11-13 samples were taken at varying time periods but always within 50 minutes from the beginning of the reaction. Cleavages rates were quantified by measuring the diminution of the cleaved chain visualized by Coomassie stained SDS-PAGs using a GEL DOC 1000 instrument and Molecular Analyst Software for densitometric calculations (Bio-Rad, Hercules, Calif., USA). The reactions were assumed to be of the Michaelis-Menten type. In the case of C3 and C3(NH3) cleavage a further reasonable assumption of KM>>[substrate] was made. The constants KM, kcat and KM/kcat were estimated by unbiased non-linear regression methods regressing the data on the following equations: t=([S0]−[S]+KMln([S0]/[S]))/(kcat[E0]) or in the case of C3 and C3(NH3) cleavage on [S]=[S0]exp(−t[E0]kcat/KM).

C2 = molecular target: T1, C2 (Homo sapiens, UniProt P06681); test: C2 cleavage by MASP fragments; format: biochemical; settings: 37° C., pH 7.4; averages of 2 to 4 experiments, standard errors
T1 construct: from tissue
T1 sequence (P06681 21-752): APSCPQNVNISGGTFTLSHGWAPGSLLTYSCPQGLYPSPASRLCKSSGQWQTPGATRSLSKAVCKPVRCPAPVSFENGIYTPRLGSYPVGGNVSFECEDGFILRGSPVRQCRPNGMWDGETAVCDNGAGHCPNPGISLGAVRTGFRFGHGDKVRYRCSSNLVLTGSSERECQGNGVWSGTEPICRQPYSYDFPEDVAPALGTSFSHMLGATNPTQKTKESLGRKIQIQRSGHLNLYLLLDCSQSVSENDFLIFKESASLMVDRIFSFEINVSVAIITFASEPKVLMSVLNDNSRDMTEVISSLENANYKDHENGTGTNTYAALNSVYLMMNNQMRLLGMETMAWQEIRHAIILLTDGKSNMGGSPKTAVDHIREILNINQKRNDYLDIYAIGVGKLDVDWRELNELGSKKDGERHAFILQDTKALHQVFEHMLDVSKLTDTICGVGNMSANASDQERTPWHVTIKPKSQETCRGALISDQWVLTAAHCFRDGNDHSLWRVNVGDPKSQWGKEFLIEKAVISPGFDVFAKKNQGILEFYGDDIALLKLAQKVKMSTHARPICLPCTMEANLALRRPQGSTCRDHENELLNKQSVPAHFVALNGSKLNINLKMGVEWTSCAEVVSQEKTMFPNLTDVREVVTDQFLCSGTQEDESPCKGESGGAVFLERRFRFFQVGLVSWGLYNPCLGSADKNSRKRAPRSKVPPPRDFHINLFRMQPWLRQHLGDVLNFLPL
Method: as §1

C1-inhibitor = molecular target: T2, C1-inhibitor (Homo sapiens, UniProt P05155); test: Rate of SDS stable complex formation of 125I-labelled MASP fragments with C1-inhibitor; format: biochemical
T2 construct: Purification of C1-inh and Alpha-2-Macroglobulin; from tissue
T2 sequence (P05155 23-500): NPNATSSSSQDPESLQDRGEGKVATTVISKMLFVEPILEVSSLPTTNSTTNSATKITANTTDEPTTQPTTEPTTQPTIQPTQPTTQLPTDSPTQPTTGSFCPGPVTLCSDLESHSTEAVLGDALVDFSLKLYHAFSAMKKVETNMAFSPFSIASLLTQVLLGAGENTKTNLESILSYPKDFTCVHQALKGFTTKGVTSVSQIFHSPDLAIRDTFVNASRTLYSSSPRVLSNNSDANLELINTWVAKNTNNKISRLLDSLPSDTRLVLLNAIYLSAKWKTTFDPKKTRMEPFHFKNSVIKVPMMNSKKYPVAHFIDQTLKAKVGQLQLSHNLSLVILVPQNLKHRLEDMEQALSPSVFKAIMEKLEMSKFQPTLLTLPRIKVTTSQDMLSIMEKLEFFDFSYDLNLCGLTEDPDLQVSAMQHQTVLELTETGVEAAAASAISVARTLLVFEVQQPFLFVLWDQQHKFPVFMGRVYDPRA
Method: To assess the rate of SDS stable complex formation between the MASP-1 and MASP-2 CCP1-CCP2-SP fragments and C1-inhibitor, the ^125I-labelled MASP fragments at concentrations ranging between 30-100 nM were incubated with 100-350 nM C1-inhibitor at 37° C. in 20 mM HEPES, 140 mM NaCl, pH 7.4 for 40 minutes. Typically 11-13 samples were taken at varying time periods. The reactions were stopped by reducing sample buffer containing 0.125 M Tris, 4.8% SDS, 8 M urea 20% glycerol, 720 mM mercaptoethanol, 0.02% bromophenol blue, pH6.8. The samples were further incubated at 37° C. for 30 minutes and run on reducing SDS-PAGE. Cleavages rates were visualized by means of autoradiography and the diminution of the reacted MASP chain was quantified using a GEL DOC 1000 instrument and Molecular Analyst Software for densitometric calculations (Bio-Rad, Hercules, Calif., USA). The kinetic constants were calculated assuming irreversible inhibition proceeded by reversible enzyme-inhibitor complex formation. Using steady-state approximation and neglecting the starting enzyme concentration compared to the starting inhibitor concentration ([I0]>>[E0]) the data was regressed on the following equation using non-linear regression methods: [E]=[E0]exp(−kobst); kobs=k2[I0]/(Ki+[I0]), where kobs is the observed pseudo-first order rate of reaction, k2 is the rate of irreversible enzyme-inhibitor complex formation and Ki is the inhibitory constant.

live C3 = molecular target: T3, live C3 (Homo sapiens, UniProt P01024); test: Cleavage of live C3 by MASP fragments, SDS-PAGE densitometry; format: biochemical; settings: control experiment
T3 construct: was isolated from fresh human serum; from tissue; host or cells: fresh human serum
T3 sequence (P01024 672-1663 limits assumed): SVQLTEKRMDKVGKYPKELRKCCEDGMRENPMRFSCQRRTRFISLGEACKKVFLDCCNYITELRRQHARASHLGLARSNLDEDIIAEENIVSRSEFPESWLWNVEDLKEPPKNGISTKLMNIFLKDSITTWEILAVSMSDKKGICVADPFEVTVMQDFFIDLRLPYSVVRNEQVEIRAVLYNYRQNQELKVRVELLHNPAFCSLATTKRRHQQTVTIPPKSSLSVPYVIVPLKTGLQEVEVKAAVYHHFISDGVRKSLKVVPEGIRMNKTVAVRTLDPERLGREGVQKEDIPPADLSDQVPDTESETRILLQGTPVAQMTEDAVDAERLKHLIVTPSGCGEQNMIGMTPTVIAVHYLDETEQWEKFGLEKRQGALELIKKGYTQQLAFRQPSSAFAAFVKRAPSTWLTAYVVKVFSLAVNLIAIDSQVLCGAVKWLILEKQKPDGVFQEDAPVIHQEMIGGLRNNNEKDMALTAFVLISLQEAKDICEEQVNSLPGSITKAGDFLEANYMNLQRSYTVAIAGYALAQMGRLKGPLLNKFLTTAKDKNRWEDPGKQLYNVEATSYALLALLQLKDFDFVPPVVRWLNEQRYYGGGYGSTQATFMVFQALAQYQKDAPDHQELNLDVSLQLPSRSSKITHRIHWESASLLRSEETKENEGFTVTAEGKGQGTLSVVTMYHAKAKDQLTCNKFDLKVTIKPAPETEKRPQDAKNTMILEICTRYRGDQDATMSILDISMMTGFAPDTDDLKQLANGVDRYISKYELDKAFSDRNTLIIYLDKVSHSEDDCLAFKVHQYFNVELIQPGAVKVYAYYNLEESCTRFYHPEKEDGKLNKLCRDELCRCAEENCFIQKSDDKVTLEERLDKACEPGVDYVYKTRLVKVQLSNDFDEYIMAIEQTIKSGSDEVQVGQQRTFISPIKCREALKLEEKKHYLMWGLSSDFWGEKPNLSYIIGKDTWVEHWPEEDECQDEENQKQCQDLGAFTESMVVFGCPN
T3 sequence (P01024 23-667 partner limits assumed): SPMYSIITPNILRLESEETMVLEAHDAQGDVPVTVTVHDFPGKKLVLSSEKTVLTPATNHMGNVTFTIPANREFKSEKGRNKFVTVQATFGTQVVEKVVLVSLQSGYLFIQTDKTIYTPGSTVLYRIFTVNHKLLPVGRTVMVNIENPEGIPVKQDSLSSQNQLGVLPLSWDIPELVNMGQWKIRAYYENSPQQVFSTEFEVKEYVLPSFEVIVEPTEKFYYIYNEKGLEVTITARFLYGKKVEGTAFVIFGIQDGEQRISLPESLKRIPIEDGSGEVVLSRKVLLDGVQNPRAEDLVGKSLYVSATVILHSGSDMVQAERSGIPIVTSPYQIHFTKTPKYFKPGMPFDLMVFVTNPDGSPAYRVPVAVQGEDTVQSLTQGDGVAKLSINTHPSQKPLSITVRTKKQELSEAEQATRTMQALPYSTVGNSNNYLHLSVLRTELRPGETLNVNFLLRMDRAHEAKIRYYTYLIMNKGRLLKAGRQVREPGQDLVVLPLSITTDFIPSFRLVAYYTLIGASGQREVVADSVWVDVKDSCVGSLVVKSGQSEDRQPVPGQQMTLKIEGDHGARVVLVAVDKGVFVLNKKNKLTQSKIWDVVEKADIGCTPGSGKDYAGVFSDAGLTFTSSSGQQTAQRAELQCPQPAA
Method: as §1, with “The constants KM, kcat and KM/kcat were estimated by unbiased non-linear regression methods regressing the data on the following equations: t=([S0]−[S]+KMln([S0]/[S]))/(kcat[E0]) or in the case of C3 and C3(NH3) cleavage on [S]=[S0]exp(−t[E0]kcat/KM).” left out

[1] = Differential scanning calorimetry of C1r fragments; format: physicochemical; settings: 20 mM Tris pH 8.3, 145 mM NaCl, 0.1 mg/ml, 1° C./min
Method: Calorimetric measurements were performed on a VP-DSC (Microcal Inc, Northampton, Mass.) differential scanning calorimeter. Denaturation curves were recorded between 10 and 80° C. at a pressure of 2.5 atm, using a scanning rate of 1° C./min. The protein concentration was set to 0.1 mg/ml. Samples were dialyzed against 20 mM Tris pH 8.3 145 mM NaCl, and the dialysis buffer was used as a reference. Heat capacities were calculated as outlined by Privalov (16).

C3(NH3) = molecular target: T4, C3(NH3) (Homo sapiens, UniProt P01024); test: Cleavage of dead C3, C3(NH3), by MASP fragments, SDS-PAGE densitometry; format: biochemical; settings: control experiment
T4 construct: was isolated from fresh human serum; from tissue; host or cells: fresh human serum, then amidolysis with ammonium hydrogen carbonate
T4 sequence (P01024 672-1663 limits assumed): as the sequence (P01024 672-1663 limits assumed) above
T4 sequence (P01024 23-667 partner limits assumed): as the sequence (P01024 23-667 partner limits assumed) above
Method: Amidolysis of C3 The intact thiol ester bond in ‘live’ C3 was cleaved using ammonium salt as the nucleophile to obtain ‘dead’ C3(NH3), according to Soames and Sim (1997) with modifications. C3 was incubated with a final concentration of 0.2 M ammonium hydrogen carbonate for 90 min at 37° C., making sure that the final pH of the reaction was above 8.0. At the end of the incubation, the reaction was collected with a brief centrifugation (5 min, 8000 g, RT) and dialyzed against 20 mM HEPES, 140 mM NaCl, pH 7.4.
C2, C3, C3(NH3), C4 cleavage—Serial dilutions of MASP-1 and MASP-2 fragments ranging between concentrations of 1 μM and 10 pM were incubated at 37° C. in 20 mM HEPES, 140 mM NaCl, pH 7.4 with C2, C3, C3(NH3) or C4 at typical concentrations of 0.5-1 μM. The cleavage was followed by SDS-PAGE under reducing conditions. Desirable concentrations of the MASP fragments for further detailed kinetic analysis were chosen to be where half of the protein substrates were hydrolyzed during the first 20 minutes of incubation. […] Cleavages rates were quantified by measuring the diminution of the cleaved chain visualized by Coomassie stained SDS-PAGs using a GEL DOC 1000 instrument and Molecular Analyst Software for densitometric calculations (Bio-Rad, Hercules, Calif., USA). […]

B1: MASP-2 CCP-SP: E. coli-expressed, refolded human MASP-2 CCP2-SP fragment, Ala-Ser-Met-Thr tag followed by Ile363, ending Phe686 (protein)
chain 1: ASMTIVDCGPPDDLPSGRVEYITGPGVTTYKAVIQYSCEETFYTMKVNDGKYVCEADGFWTSSKGEKSLPVCEPVCGLSARTTGGR
chain 2: IYGGQKAKPGDFPWQVLILGGTTAAGALLYDNWVLTAAHAVYEQKHDASALDIRMGTLKRLSPHYTQAWSEAVFIHEGYTHDAGFDNDIALIKLNNKVVINSNITPICLPRKEAESFMRTDDIGTASGWGLTQRGFLARNLMYVDIPIVDHQKCTAAYEKPPYPRGSVTANMLCAGLESGGKDSCRGDSGGALVFLDSETERWFVGGIVSWGSMNCGEAGQYGVYTKVINYIPWIENIISDF
C4 kcat (C4): 2.0 ± 1.0 s⁻¹ | increase in the kcat/KM value of C4 cleavage by presence of the CCP2 domain (C4; relative to MASP-2 SP domain alone): 44 fold | C2 kcat (C2): 3.0 ± 2.2 s⁻¹

B2: MASP-2 SP: E. coli-expressed, refolded human MASP-2 serine protease domain, Ala-Ser-Met-Thr tag followed by Pro432, ending Phe686 (protein)
chain 1: ASMTPVCGLSARTTGGR
chain 2: IYGGQKAKPGDFPWQVLILGGTTAAGALLYDNWVLTAAHAVYEQKHDASALDIRMGTLKRLSPHYTQAWSEAVFIHEGYTHDAGFDNDIALIKLNNKVVINSNITPICLPRKEAESFMRTDDIGTASGWGLTQRGFLARNLMYVDIPIVDHQKCTAAYEKPPYPRGSVTANMLCAGLESGGKDSCRGDSGGALVFLDSETERWFVGGIVSWGSMNCGEAGQYGVYTKVINYIPWIENIISDF
C4 kcat (C4): 0.20 ± 0.06 s⁻¹ | C2 kcat (C2): 3.9 ± 3.0 s⁻¹

B3: MASP-2γB: E. coli-expressed, refolded human MASP-2 CCP1-CCP2-SP fragment, Thr287 to Phe686, Ala-Ser-Met tag; purified form starts with Ile291 (protein)
chain 1: IHYTSTAQPCPYPMAPPNGHVSPVQAKYILKDSFSIFCETGYELLQGHLPLKSFTAVCQKDGSWDRPMPACSIVDCGPPDDLPSGRVEYITGPGVTTYKAVIQYSCEETFYTMKVNDGKYVCEADGFWTSSKGEKSLPVCEPVCGLSARTTGGR
chain 2: IYGGQKAKPGDFPWQVLILGGTTAAGALLYDNWVLTAAHAVYEQKHDASALDIRMGTLKRLSPHYTQAWSEAVFIHEGYTHDAGFDNDIALIKLNNKVVINSNITPICLPRKEAESFMRTDDIGTASGWGLTQRGFLARNLMYVDIPIVDHQKCTAAYEKPPYPRGSVTANMLCAGLESGGKDSCRGDSGGALVFLDSETERWFVGGIVSWGSMNCGEAGQYGVYTKVINYIPWIENIISDF
Ki values for the C1-inhibitor reaction, in words (C1-inhibitor): in the nanomolar range | k2, rate of irreversible enzyme-inhibitor complex formation with C1-inh (C1-inhibitor; 37° C., pH 7.4): 0.008 s⁻¹ | Ki (C1-inhibitor; 37° C., pH 7.4, read-out: Ki, reaction with C1-inh): 8.8 nM | kobs, pseudo-first order rate of reaction with C1-inh (C1-inhibitor; [C1-inh] = 350 nM, 37° C., pH 7.4): 0.0078 s⁻¹ | C4 kcat (C4): 0.9 ± 0.4 s⁻¹ | C2 kcat (C2): 1.9 ± 0.8 s⁻¹

B4: CCP1-CCP2-SP: E. coli-expressed, refolded human C1r CCP1-CCP2-SP fragment, amino acids 309-705, N-terminal Ser-Thr-Gln-Ala (protein)
chain 1: STQACPQPKTLDEFTIIQNLQPQYQFRDYFIATCKQGYQLIEGNQVLHSFTAVCQDDGTWHRAMPRCKIKDCGQPRNLPNGDFRYTTTMGVNTYKARIQYYCHEPYYKMQTRAGSRESEQGVYTCTAQGIWKNEQKGEKIPRCLPVCGKPVNPVEQRQR
chain 2: IIGGQKAKMGNFPWQVFTNIHGRGGGALLGDRWILTAAHTLYPKEHEAQSNASLDVFLGHTNVEELMKLGNHPIRRVSVHPDYRQDESYNFEGDIALLELENSVTLGPNLLPICLPDNDTFYDLGLMGYVSGFGVMEEKIAHDLRFVRLPVANPQACENWLRGKNRMDVFSQNMFCAGHPSLKQDACQGDSGGVFAVRDPNTDRWVATGIVSWGIGCSRGYGFYTKVLNYVDWIKKEMEEED
cleavage of 'live' C3, in words (live C3): no cleavages | DSC melting / unfolding transition temperature [1]: 57.5 °C | cleavage of 'dead' C3, in words (C3(NH3)): no cleavages

B5: CCP2-SP: E. coli-expressed, refolded human C1r CCP2-SP fragment, amino acids 376-705, N-terminal Ser-Thr-Gln-Ala (protein)
chain 1: STQACGQPRNLPNGDFRYTTTMGVNTYKARIQYYCHEPYYKMQTRAGSRESEQGVYTCTAQGIWKNEQKGEKIPRCLPVCGKPVNPVEQRQR
chain 2: IIGGQKAKMGNFPWQVFTNIHGRGGGALLGDRWILTAAHTLYPKEHEAQSNASLDVFLGHTNVEELMKLGNHPIRRVSVHPDYRQDESYNFEGDIALLELENSVTLGPNLLPICLPDNDTFYDLGLMGYVSGFGVMEEKIAHDLRFVRLPVANPQACENWLRGKNRMDVFSQNMFCAGHPSLKQDACQGDSGGVFAVRDPNTDRWVATGIVSWGIGCSRGYGFYTKVLNYVDWIKKEMEEED
DSC melting / unfolding transition temperature [1]: 55.4 °C
